Blank lines part the entries; values can stand above or below the molecule they belong to.
How the values were obtained:
[1] = target: recombinant Der p 1 (mature, enzymatically active cysteine protease) (house dust mite) (UniProt P08176); test: enzyme inhibition kinetics; time-dependent inhibition of Der p 1 (5 nM) by propeptide (30–300 nM) at pH 7, fluorogenic substrate Boc-Gln-Ala-Arg-AMC; pre-steady-state kobs against propeptide concentration by linear regression gives KD Global, kon and koff; simple 1/1 stoichiometry assumed
[2] = target: recombinant Der p 1 (mature, enzymatically active cysteine protease) (house dust mite) (UniProt P08176); test: enzyme inhibition kinetics; steady-state velocities of Der p 1 at each propeptide concentration, pH 7, substrate Boc-Gln-Ala-Arg-AMC at 160 µM; KD calculated by Equation (4) because initial and steady-state velocities differed little
[3] = target: recombinant Der p 1 (mature, enzymatically active cysteine protease) (house dust mite) (UniProt P08176)

- Kd [1]: 7 nM
- koff [1]: 0.0078 s⁻¹
- kon [1]: 1.1e+06 M⁻¹ s⁻¹
Molecule: Der p 1 propeptide, wild type, full-length (1-80) (domain or fragment)

- reduction of the initial Der p 1 activity (Boc-Gln-Ala-Arg-AMC hydrolysis) by tetrapeptide (10 mM) at pH 4 [3]: 30%
B1: tetrapeptide NKSY (first half of the cleavage site NKSY19p–A20pTFE) (peptide)
peptide: NKSY

- reduction of the initial Der p 1 activity (Boc-Gln-Ala-Arg-AMC hydrolysis) by tetrapeptide (10 mM) at pH 4 [3]: 45%
B2: tetrapeptide KYVQ (first half of the cleavage site KYVQ40p–S41pNGG) (peptide)
peptide: KYVQ

- reduction of the initial Der p 1 activity (Boc-Gln-Ala-Arg-AMC hydrolysis) by tetrapeptide (10 mM) at pH 4 [3]: 80%
B4: tetrapeptide LNAE (first half of the cleavage site LNAE80p–T1NAC) (peptide)
peptide: LNAE

Second part, the molecule before the results:

Molecule: Der p 1 propeptide mutant E56pA, full-length (1-80) (domain or fragment)
- Kd [1]: 5 nM
- koff [1]: 0.007 s⁻¹
- kon [1]: 1.5e+06 M⁻¹ s⁻¹

Molecule: Der p 1 propeptide mutant D51pA, full-length (1-80) (domain or fragment)
- Kd [1]: 37 nM
- koff [1]: 0.017 s⁻¹
- kon [1]: 440000 M⁻¹ s⁻¹

Molecule: Der p 1 propeptide mutant Y19pF, full-length (1-80) (domain or fragment)
- Kd [1]: 6 nM
- koff [1]: 0.007 s⁻¹
- kon [1]: 1.2e+06 M⁻¹ s⁻¹

Molecule: Der p 1 propeptide double mutant D51pA/E56pA, full-length (1-80) (domain or fragment)
- Kd [2]: 130 nM

Molecule: Der p 1 propeptide mutant K17pA, full-length (1-80) (domain or fragment)
- Kd [1]: 15 nM
- koff [1]: 0.007 s⁻¹
- kon [1]: 460000 M⁻¹ s⁻¹

B3: tetrapeptide FDLN (first half of the cleavage site FDLN78p–A79pETN) (peptide)
peptide: FDLN
- reduction of the initial Der p 1 activity (Boc-Gln-Ala-Arg-AMC hydrolysis) by tetrapeptide (10 mM) at pH 4 [3]: 75%

From publication PMC5454996
